According to patent US20070134249A1 (GENITOPE, published 2007):

How the values were obtained:
Test in all cases: ELISA
Design in all cases: key to grade: 0 = <0.5 OD, 1 = 0.5-1.0 OD, 4 = 1-4 OD
534 = biological target: T1, 534
T1 construct: H3-11 L1-47; also called PIN534
Excerpt: (§1) Before specificity screening, all of the clonal immunogen-positive hybridoma supernatants were re-screened on the immunogen, a non-family member Id protein, and KLH, if animals were immunized with Id protein that has been conjugated KLH. As described above, this screen identifies HC-specific clones but not mAbs against the light chain constant region. Clones identified positive to the immunogen and KLH were […]. Those found positive to the immunogen but not to the non-family member Id protein or KLH were tittered on the immunogen. In addition to normalizing for different binding affinities and concentrations, each hybridoma supernatant was titered on the fully human form of the Id protein used as the immunogen(s) for the V regions. The titer or dilution resulting in an ELISA absorbance of 2.5 to 3 OD after 30 min. incubation time was then used. Hybridoma specificity was determined by screening against available Id proteins expressing the same HV and KV or LV as well as different HV, KV and LV. The final ELISA results are expressed as follows: 0 (<0.5 OD), 1 (0.5-1.0 OD), or 4 (1-4 OD). Positive hybridoma supernatants are categorized according to specificity: anti-Id, anti-constant region (HC, KC or LC), or V region (HV, KV, LV family or family member).
(§2) In general, the fully human Id protein or proteins containing the immunogen V regions were coated onto 96-well ELISA plates at 2.5-5 ug/mL in carbonate buffer pH 9.6 and incubated at 4° C. for up to 14 days. On the day of the ELISA, plates were brought to RT and blocked with Tris-Tween-20, pH 7.6 for 15-60 min. at RT. Following a NaCl and Triton X-100 wash, diluted hybridoma cell culture supernatants were incubated overnight at 4° C. Hybridoma supernatant dilutions ranged from 1:2 to 1:25 and were prepared in PBS with 5% BSA. Plates were washed and incubated with HRP-conjugated goat anti-mouse IgG-specific detecting antibody. A chromogenic substrate (TMB) was used to measure the amount of mouse antibody bound to each well. The reaction was stopped at or before 30 minutes with IN H2SO4 and plates were read immediately. Absorbency readings at 450 nm ranging between 0-4 OD and using Molecular Devices plate reader and SOFTMAX PRO software.

552 = biological target: T2, 552
T2 construct: H1-18 L2-8; also called PIN552
Excerpt: as §1, §2

1167 = biological target: T3, 1167
T3 construct: H3-23 L2-14; also called PIN1167
Excerpt: as §1, §2

746 = biological target: T4, 746
T4 construct: H4-39 L2-8; also called PIN746
Excerpt: as §1, §2

1060 = biological target: T5, 1060
T5 construct: H4-39 L2-23; also called PIN1060
Excerpt: as §1, §2

551 = biological target: T6, 551
T6 construct: H3-23 L1-40; also called PIN551
Excerpt: as §1, §2

710 = biological target: T7, 710
T7 construct: H1-8 L2-8; also called PIN710
Excerpt: as §1, §2

[1] = biological target: T8, PIN574 fully human Id protein (HV4-39 / LV1-40) (human)
T8 construct: Recombinant patient-derived idiotype immunoglobulin used as antigen, fully human form; also called Immunogen (for 20H5); not shown: human immunoglobulin heavy chain constant region, isotype G3 (HCG3); human immunoglobulin lambda light chain constant region (LC)
Excerpt: as §1, §2

1131 = biological target: T9, 1131
T9 construct: H4-31 L3-25; also called PIN1131
Excerpt: as §1, §2

645 = biological target: T10, 645
T10 construct: H3-74 L2-14; also called PIN645
Excerpt: as §1, §2

796 = biological target: T11, 796
T11 construct: H3-23 L3-25; also called PIN796
Excerpt: as §1, §2

1067 = biological target: T12, 1067
T12 construct: H1-8 L2-23; also called PIN1067
Excerpt: as §1, §2

102 = biological target: T13, 102
T13 construct: H1-18 L1-44; also called PIN102
Excerpt: as §1, §2

625 = biological target: T14, 625
T14 construct: H4-61 L2-8; also called PIN625
Excerpt: as §1, §2

857 = biological target: T15, 857
T15 construct: H5-51 L2-14; also called PIN857
Excerpt: as §1, §2

747 = biological target: T16, 747
T16 construct: H3-23 L2-14; also called PIN747
Excerpt: as §1, §2

164 = biological target: T17, 164
T17 construct: H4-39 L2-14; also called PIN164
Excerpt: as §1, §2

1089 = biological target: T18, 1089
T18 construct: H3-73 L2-23; also called PIN1089
Excerpt: as §1, §2

T8 sequence (VH, as listed by the source, chain 1 of 2): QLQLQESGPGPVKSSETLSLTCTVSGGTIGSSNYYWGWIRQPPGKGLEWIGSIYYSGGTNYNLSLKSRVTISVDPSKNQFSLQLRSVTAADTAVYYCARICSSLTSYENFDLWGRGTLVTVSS
T8 sequence (VL, as listed by the source, chain 2 of 2): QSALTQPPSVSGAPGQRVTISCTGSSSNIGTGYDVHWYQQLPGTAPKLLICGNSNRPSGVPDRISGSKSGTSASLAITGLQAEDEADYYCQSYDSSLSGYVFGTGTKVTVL

- grade 534: 4
- grade 552: 4
- grade 1167: 4
- grade 746: 1
- grade 1060: 4
- grade 551: 4
- grade 710: 4
- grade [1]: 4
- grade 1131: 4
- grade 645: 1
- grade 796: 4
- grade 1067: 4
- grade 102: 4
- grade 625: 4
- grade 857: 4
- grade 747: 1
- grade 164: 4
- grade 1089: 4
B1: mAb clone 4H11 (antibody, V domains shown)
VH: EVKLVESGGGLVKPGGSLKLSCAASGFAFSNYDMSWVRQTPEKRLEWVATIRSDDSYTYYPDSVKGRFTISRDNARNTLYLQMSSLRSEDTAFYYCARREGNYAMDYWGQGTSVTVSS
VL: DIQMTQSPASLSVSVGETVTITCRASENIYSYLAWYQQKKGKSPQLLVYAATNLGDGVPTRFSGSGSGTQYSLKINSLQSEDFGSYYCQHFWGNPLTFGAGTKLELKR
notes: Mouse hybridoma mAb
